How the values were obtained:
[1] = biological target: T1, Rev-erbα (mouse, UniProt Q3UV55 1-615); experiment: EMSA
T1 sequence: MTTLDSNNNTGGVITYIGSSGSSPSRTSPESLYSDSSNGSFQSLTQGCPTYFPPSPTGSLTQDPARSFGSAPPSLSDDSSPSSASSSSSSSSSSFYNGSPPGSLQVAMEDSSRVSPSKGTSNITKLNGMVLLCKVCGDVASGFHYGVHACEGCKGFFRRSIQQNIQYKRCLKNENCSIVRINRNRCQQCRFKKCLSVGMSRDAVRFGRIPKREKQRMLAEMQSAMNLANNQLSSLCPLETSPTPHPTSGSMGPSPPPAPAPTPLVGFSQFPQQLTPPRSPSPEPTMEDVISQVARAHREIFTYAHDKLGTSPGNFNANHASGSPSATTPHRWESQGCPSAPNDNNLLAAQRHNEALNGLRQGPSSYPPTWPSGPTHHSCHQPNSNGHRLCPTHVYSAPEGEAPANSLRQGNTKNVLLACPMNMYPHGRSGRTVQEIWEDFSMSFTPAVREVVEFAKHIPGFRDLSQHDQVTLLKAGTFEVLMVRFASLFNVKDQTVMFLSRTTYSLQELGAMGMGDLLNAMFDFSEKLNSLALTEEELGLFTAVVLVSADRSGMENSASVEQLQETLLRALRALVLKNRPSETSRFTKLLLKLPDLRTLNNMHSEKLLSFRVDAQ

[2] = biological target: T2, RORα (mouse, UniProt P51448 1-523); experiment: EMSA
T2 sequence: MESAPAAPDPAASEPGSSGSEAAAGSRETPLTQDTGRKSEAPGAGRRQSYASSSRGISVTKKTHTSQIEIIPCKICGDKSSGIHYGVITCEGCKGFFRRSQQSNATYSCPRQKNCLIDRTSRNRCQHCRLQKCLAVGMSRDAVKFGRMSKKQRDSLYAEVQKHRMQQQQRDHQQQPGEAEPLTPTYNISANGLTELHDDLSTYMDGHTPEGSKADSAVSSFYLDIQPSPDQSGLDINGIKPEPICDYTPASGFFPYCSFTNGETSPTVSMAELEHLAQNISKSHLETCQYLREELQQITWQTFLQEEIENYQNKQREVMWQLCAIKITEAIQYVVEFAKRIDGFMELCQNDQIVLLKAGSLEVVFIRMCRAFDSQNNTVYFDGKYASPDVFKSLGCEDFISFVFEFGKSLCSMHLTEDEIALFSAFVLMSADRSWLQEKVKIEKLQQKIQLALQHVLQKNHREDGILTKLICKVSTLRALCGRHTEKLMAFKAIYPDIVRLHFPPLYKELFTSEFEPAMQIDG

Binder | binding result [1] | binding result [2]
mut h-RRE1 (dsDNA) DNA 1: TTCCTCAACAGCCGATACATTGTTTC DNA 2: GAAACAATGTATCGGCTGTTGAGGAA | no binding | no binding
mut h-RRE2 (dsDNA) DNA 1: TCACCTGCTTGACGGCTTGACAGACCG DNA 2: CGGTCTGTCAAGCCGTCAAGCAGGTGA | no binding | no binding
